Measured values published in patent publication US20240182540A1.

Target: EGFRvIII variant of EGFR, expressed on CT2AvIII cells (UniProt P00533)
Experiment: cell-based or functional assay

third-generation EGFRvIII-targeting CAR (anti-EGFRvIII scFv clone 139 fused to CD8 hinge and TM, CD28, 4-1BB and CD3zeta), on transduced mouse T cells
percent survival of tumor cells, in vitro cytotoxicity against a 70:30 mixture of CT2A:CT2AvIII, 24 h co-culture: 75%
